Assay results as given in PMC4219786, “Glycan Dependence of Galectin-3 Self-Association Properties” (PLoS ONE, 2014).
Values belong to the compound of their own block, whether it stands above or below them.

Tests used:
Galectin-3 = molecular target: T1, Galectin-3 (Homo sapiens, UniProt P17931); assay: SPR steady-state KD; 1H-15N HSQC NMR titration (slow exchange); format: binding
T1 construct: gene LGALS3; CRD domain (114–250), C-terminal 6His-tag

[1] = molecular target: full length human Galectin-3 (1-250) (human) (UniProt P17931); assay: dynamic light scattering; before filtration, after purification and freezing at -80°C; no glycan; 41 µM CRD, 37 µM FL; 5 mM potassium phosphate pH 7.4; 25°C
[2] = molecular target: full length human Galectin-3 (1-250) (human) (UniProt P17931); assay: dynamic light scattering; after centrifugation and filtration; with 140 µM LNnT (CRD up to 1.2 mM LNnT); 41 µM CRD, 37 µM FL; 5 mM potassium phosphate pH 7.4; 25°C
[3] = molecular target: human Galectin-3 Carbohydrate Recognition Domain (114-250) (human) (UniProt P17931); assay: dynamic light scattering; before filtration, after purification and freezing at -80°C; no glycan; 41 µM CRD, 37 µM FL; 5 mM potassium phosphate pH 7.4; 25°C

T1 sequence (P17931 114-250): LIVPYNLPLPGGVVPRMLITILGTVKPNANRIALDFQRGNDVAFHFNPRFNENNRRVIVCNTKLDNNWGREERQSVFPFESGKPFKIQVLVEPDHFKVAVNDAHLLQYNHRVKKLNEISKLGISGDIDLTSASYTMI

Compound: CC(=O)N[C@H]1[C@H](O[C@H]2[C@@H](O)[C@@H](CO)O[C@@H](O[C@H]3[C@H](O)[C@@H](O)C(O)O[C@@H]3CO)[C@@H]2O)O[C@H](CO)[C@@H](O[C@@H]2O[C@H](CO)[C@H](O)[C@H](O)[C@H]2O)[C@@H]1O (some centres unmarked) [LNnT, lacto-N-neoTetraose]
Kd (Galectin-3): 140 ± 17 µM

% mass of size >100 nm [1]: 67%
% mass of size <100 nm (46.73 nm), with 140 µM LNnT [2]: 8.7%
% mass of size >100 nm, with 140 µM LNnT [2]: 91.3%
Compound: full length human Galectin-3 (1-250) (from UniProt P17931 1-250) (natural protein)

% mass of size >100 nm [3]: 0.7%
Compound: human Galectin-3 Carbohydrate Recognition Domain (114-250) (from UniProt P17931 114-250) (domain or fragment)
